Test results: patent US20190045761

Legend:
[1] = tested on: FAH 5.3 TALEN right (3') (synthetic construct); test: cell_activity; details: TALEN pair with HDR oligo (HindIII) in RG-KO pig fibroblasts, 16 bp spacer
[2] = tested on: FAH 5.3 TALEN left (5') (synthetic construct); test: cell_activity; details: TALEN pair with HDR oligo (HindIII) in RG-KO pig fibroblasts, 16 bp spacer

Q: For “GGTATGTCCCAGACC (double strand) [FAH 5.3 TALEN 3' half-site]”, which activity (% of colonies positive) [1] is on record?
A: The activity (% of colonies positive) was 5.3.

Q: With “TCAGGGGCAAGGAGACT (double strand) [FAH 5.3 TALEN 5' half-site]” as the sequence, how does the activity (% of colonies positive) [2] read?
A: The activity (% of colonies positive) was 5.3.
